Experimental data: patent US20250179205A1 (Hoffmann-La Roche, published 2025)

Assays:
[1] = molecular target: T1, His-tagged human dimeric FAP (recombinant FAP_ECD) (human, UniProt Q12884 27-760); experiment: SPR (Biacore T200), His-tagged dimeric huFAP ECD captured by anti-His, antibody as analyte, 1:1 fit (avidity)
T1 construct: also called hu FAP ectodomain + poly-lys-tag + his6-tag
Method: The capacity of the bispecific constructs to bind human FAP was assessed by surface plasmon resonance (SPR). All SPR experiments were performed on a BIACORE® T200 (BIACORE®) at 25° C. with HBS-EP as running buffer (0.01 M HEPES pH 7.4, 0.15 M NaCl, 3 mM EDTA, 0.005% Surfactant P20, (BIACORE®).
His-tagged human dimeric FAP (recombinant FAP_ECD) was captured on a CM5 chip (GE Healthcare) immobilized with anti-His antibody (Qiagen Cat. No. 34660) by injection of 500 nM huFAP for 60 s at a flow rate of 10 uL/min, 10 nM murine FAP for 20 s at a flow rate of 20 uL/min and 10 nM cynoFAP for 20 s at a flow rate of 20 uL/min. Immobilization levels for the anti-His antibody of up to 18000 resonance units (RU) were used. Following the capture step, the bispecific antibodies as well as control molecules were immediately passed over the chip surface at a concentration ranging from 0.78-100 nM with a flow rate of […] for 280 s and a dissociation phase of 180 s. Bulk refractive index differences were corrected for by subtracting the response obtained in a reference flow cell, where no FAP was immobilized. Avidity was determined using the Langmuir 1:1 curve fitting. For bivalent binding the same 1:1 fitting was used leading to an apparent KD value.

[2] = molecular target: T2, mouse fibroblast activation protein (mFAP) (mouse, UniProt P97321 1-761); experiment: flow cytometry on NIH/3T3-mFAP cells (3T3_mFAP), PE-labelled anti-human IgG Fcgamma F(ab')2 secondary, MFI baseline corrected
T2 construct: expressed on transfected NIH/3T3-mFAP clone 26 cells; also called murine FAP; mouse FAP
Method: (§1) NIH/3T3-huFAP clone 19 and NIH/3T3-mFAP clone 26 were generated by the transfection of the mouse embryonic fibroblast NIH/3T3 cell line (ATCC CRL-1658) with the expression vector pETR4921 to express under 1.5 μg/mL Puromycin selection huFAP or mFAP, respectively.
(§2) NIH/3T3-huFAP, NIH/3T3-mFAP or NIH/3T3-wt cells were cultured with 1× Dulbecco's Modified Eagle's Medium (DMEM) (Gibco, Cat. No. 42430-025) supplemented with 10% Fetal Bovine Serum (FBS) (life technologies, Cat. No. 16140, Lot No. 1797306A). For the NIH/3T3-huFAP and NIH/3T3-mFAP cells 1.5 μg/mL Puromycin (Gibco, Cat. No. A11138-03) was added to the medium for selection of FAP-expressing cells. NIH/3T3 cells were removed from the plate by using enzyme-free Cell Dissociation Buffer (Gibco, Cat. No. 13151014). 0.3×10⁵ NIH/3T3-huFAP clone 19, NIH/3T3-mFAP clone 26 or NIH/3T3-wt were added in 200 μl of 1×DMEM 10% FBS to each well of a round-bottom 96-well plate (Greiner Bio-One, CELLSTAR®, Cat. No. 650185). Plates were centrifuged 5 minutes at 1700 rpm and supernatants were flicked off. Cells were washed once with 200 μL of 4° C. cold FACS buffer (eBioscience, Cat. No. 00-4222-26). All samples were resuspended in 50 μL/well of 4° C. cold FACS buffer containing the bispecific antigen binding molecules (primary antibody) or isotype control antibody DP47 at the indicated range of concentrations (in duplicates) and incubated for 120 minutes at 4° C. Afterwards the cells were washed three times with 200 μL 4° C. cold FACS buffer. Cells were further stained with 25 μL/well of 4° C. cold secondary antibody solution (1:50 dilution of secondary antibody) containing R-Phycoerythrin (PE) conjugated AffiniPure F(ab′)₂ Fragment Goat Anti-Human IgG, Fcγ Fragment Specific (Jackson ImmunoResearch, Cat. No. 109-116-098) and incubated for 60 minutes at 4° C. in the dark. Cells were washed with 200 μl FACS buffer and resuspended in 85 μL/well FACS-buffer containing 0.2 μg/mL DAPI (Roche, Cat. No. 10236276001) and acquired the same day using 5-laser LSR-Fortessa (BD Bioscience with DIVA software). Data analysis was performed using the FlowJo version 10 software (FlowJo LLC).

[3] = molecular target: T3, human fibroblast activation protein (huFAP) (human, UniProt Q12884 1-760); experiment: flow cytometry, NIH/3T3-huFAP clone 19 cells, PE anti-human Fc F(ab')2
T3 construct: expressed on transfected NIH/3T3-huFAP clone 19 cells; also called human FAP
Method: as §1, §2

T2 sequence (P97321 whole entry): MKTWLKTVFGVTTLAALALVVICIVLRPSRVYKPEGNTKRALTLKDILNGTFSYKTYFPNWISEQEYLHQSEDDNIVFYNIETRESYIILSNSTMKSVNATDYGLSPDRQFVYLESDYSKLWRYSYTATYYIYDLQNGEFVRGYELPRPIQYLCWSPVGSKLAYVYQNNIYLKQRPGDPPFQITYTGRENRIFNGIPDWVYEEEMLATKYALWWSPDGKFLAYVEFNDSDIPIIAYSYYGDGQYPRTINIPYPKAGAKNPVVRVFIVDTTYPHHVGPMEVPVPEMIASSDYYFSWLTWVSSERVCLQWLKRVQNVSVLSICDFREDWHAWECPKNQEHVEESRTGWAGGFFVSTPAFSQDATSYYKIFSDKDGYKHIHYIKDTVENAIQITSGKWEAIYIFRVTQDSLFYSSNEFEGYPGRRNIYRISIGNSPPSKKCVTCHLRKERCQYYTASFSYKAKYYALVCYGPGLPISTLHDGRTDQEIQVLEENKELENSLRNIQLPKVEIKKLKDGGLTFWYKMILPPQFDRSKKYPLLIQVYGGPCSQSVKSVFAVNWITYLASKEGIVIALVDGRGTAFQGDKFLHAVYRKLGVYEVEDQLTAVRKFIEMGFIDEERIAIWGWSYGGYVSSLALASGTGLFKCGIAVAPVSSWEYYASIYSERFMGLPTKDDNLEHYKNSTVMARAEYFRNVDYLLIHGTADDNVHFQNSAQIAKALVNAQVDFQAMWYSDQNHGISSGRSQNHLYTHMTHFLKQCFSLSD

Binder	Kd [1] [nM]	koff [1] [s⁻¹]	kon [1] [M⁻¹ s⁻¹]	binding result [2]	EC50 [3] [nM]
P1AD4520 or P1AD9139 mu CD40 (FGK4.5) × FAP (28H1) (4 + 1) (bispecific antibody, mouse IgG1, kappa, murine surrogate, tetravalent for mouse CD40, monovalent for FAP (28H1); mouse IgG1 DAPG, DD/KK; also called 4 + 1 with C-terminal VH/VL fusion; muCD40-28H1) heavy 1: EVQLVESDGGLVQPGRSLKLPCAASGFTFSDYYMAWVRQAPTKGLEWVASISYDGSSTYYRDSVKGRFTISRDNAKSTLYLQMDSLRSEDTATYYCGRHSSYFDYWGQGVMVTVSSAKTTPPSVYPLAPGSAAQTNSMVTLGCLVKGYFPEPVTVTWNSGSLSSGVHTFPAVLQSDLYTLSSSVTVPSSTWPSQTVTCNVAHPASSTKVDKKIVPRDCGGGGSGGGGSEVQLVESDGGLVQPGRSLKLPCAASGFTFSDYYMAWVRQAPTKGLEWVASISYDGSSTYYRDSVKGRFTISRDNAKSTLYLQMDSLRSEDTATYYCGRHSSYFDYWGQGVMVTVSSAKTTPPSVYPLAPGSAAQTNSMVTLGCLVKGYFPEPVTVTWNSGSLSSGVHTFPAVLQSDLYTLSSSVTVPSSTWPSQTVTCNVAHPASSTKVDKKIVPRDCGCKPCICTVPEVSSVFIFPPKPKDVLTITLTPKVTCVVVAISKDDPEVQFSWFVDDVEVHTAQTKPREEQINSTFRSVSELPIMHQDWLNGKEFKCRVNSAAFGAPIEKTISKTKGRPKAPQVYTIPPPKKQMAKDKVSLTCMITNFFPEDITVEWQWNGQPAENYKNTQPIMKTDGSYFVYSKLNVQKSNWEAGNTFTCSVLHEGLHNHHTEKSLSHSPGGGGGSGGGGSGGGGSGGGGSEVQLLESGGGLVQPGGSLRLSCAASGFTFSSHAMSWVRQAPGKGLEWVSAIWASGEQYYADSVKGRFTISRDNSKNTLYLQMNSLRAEDTAVYYCAKGWLGNFDYWGQGTLVTVSS heavy 2: EVQLVESDGGLVQPGRSLKLPCAASGFTFSDYYMAWVRQAPTKGLEWVASISYDGSSTYYRDSVKGRFTISRDNAKSTLYLQMDSLRSEDTATYYCGRHSSYFDYWGQGVMVTVSSAKTTPPSVYPLAPGSAAQTNSMVTLGCLVKGYFPEPVTVTWNSGSLSSGVHTFPAVLQSDLYTLSSSVTVPSSTWPSQTVTCNVAHPASSTKVDKKIVPRDCGGGGSGGGGSEVQLVESDGGLVQPGRSLKLPCAASGFTFSDYYMAWVRQAPTKGLEWVASISYDGSSTYYRDSVKGRFTISRDNAKSTLYLQMDSLRSEDTATYYCGRHSSYFDYWGQGVMVTVSSAKTTPPSVYPLAPGSAAQTNSMVTLGCLVKGYFPEPVTVTWNSGSLSSGVHTFPAVLQSDLYTLSSSVTVPSSTWPSQTVTCNVAHPASSTKVDKKIVPRDCGCKPCICTVPEVSSVFIFPPKPKDVLTITLTPKVTCVVVAISKDDPEVQFSWFVDDVEVHTAQTKPREEQINSTFRSVSELPIMHQDWLNGKEFKCRVNSAAFGAPIEKTISKTKGRPKAPQVYTIPPPKEQMAKDKVSLTCMITNFFPEDITVEWQWNGQPAENYDNTQPIMDTDGSYFVYSDLNVQKSNWEAGNTFTCSVLHEGLHNHHTEKSLSHSPGGGGGSGGGGSGGGGSGGGGSEIVLTQSPGTLSLSPGERATLSCRASQSVSRSYLAWYQQKPGQAPRLLIIGASTRATGIPDRFSGSGSGTDFTLTISRLEPEDFAVYYCQQGQVIPPTFGQGTKVEIK light: DTVLTQSPALAVSPGERVTISCRASDSVSTLMHWYQQKPGQQPKLLIYLASHLESGVPARFSGSGSGTDFTLTIDPVEADDTATYYCQQSWNDPWTFGGGTKLELKRADAAPTVSIFPPSSEQLTSGGASVVCFLNNFYPKDINVKWKIDGSERQNGVLNSWTDQDSKDSTYSMSSTLTLTKDEYERHNSYTCEATHKTSTSPIVKSFNRNEC	2.7	0.00155	576000	–	–
4B9 IgG1 (antibody, V domains shown, IgG1; also called Control; FAP(4B9)) VH: EVQLLESGGGLVQPGGSLRLSCAASGFTFSSYAMSWVRQAPGKGLEWVSAIIGSGASTYYADSVKGRFTISRDNSKNTLYLQMNSLRAEDTAVYYCAKGWFGGFNYWGQGTLVTVSS VL: EIVLTQSPGTLSLSPGERATLSCRASQSVTSSYLAWYQQKPGQAPRLLINVGSRRATGIPDRFSGSGSGTDFTLTISRLEPEDFAVYYCQQGIMLPPTFGQGTKVEIK	0.08	0.000172	2.19e+06	–	–
P1AA9641 CD40 × FAP (28H1) (2 + 1) (bispecific antibody, human IgG1, kappa, L234A L235A, 28H1 VH and VL fused to the C-termini of the knob and hole heavy chains; also called CD40 × FAP 2 + 1; huCD40-28H1) heavy 1: EVQLVESGGGLVQPGGSLRLSCAASGYSFTGYYIHWVRQAPGKGLEWVARVIPNAGGTSYNQKFKGRFTLSVDNSKNTAYLQMNSLRAEDTAVYYCAREGIYWWGQGTLVTVSSASTKGPSVFPLAPSSKSTSGGTAALGCLVKDYFPEPVTVSWNSGALTSGVHTFPAVLQSSGLYSLSSVVTVPSSSLGTQTYICNVNHKPSNTKVDKKVEPKSCDKTHTCPPCPAPEAAGGPSVFLFPPKPKDTLMISRTPEVTCVVVDVSHEDPEVKFNWYVDGVEVHNAKTKPREEQYNSTYRVVSVLTVLHQDWLNGKEYKCKVSNKALGAPIEKTISKAKGQPREPQVCTLPPSRDELTKNQVSLSCAVKGFYPSDIAVEWESNGQPENNYKTTPPVLDSDGSFFLVSKLTVDKSRWQQGNVFSCSVMHEALHNHYTQKSLSLSPGGGGGSGGGGSGGGGSGGGGSEIVLTQSPGTLSLSPGERATLSCRASQSVSRSYLAWYQQKPGQAPRLLIIGASTRATGIPDRFSGSGSGTDFTLTISRLEPEDFAVYYCQQGQVIPPTFGQGTKVEIK heavy 2: not shown light: DIQMTQSPSSLSASVGDRVTITCRSSQSLVHSNGNTFLHWYQQKPGKAPKLLIYTVSNRFSGVPSRFSGSGSGTDFTLTISSLQPEDFATYFCSQTTHVPWTFGQGTKVEIKRTVAAPSVFIFPPSDEQLKSGTASVVCLLNNFYPREAKVQWKVDNALQSGNSQESVTEQDSKDSTYSLSSTLTLSKADYEKHKVYACEVTHQGLSSPVTKSFNRGEC	–	–	–	binds	33
P1AD4453 CD40 × FAP (28H1) (4 + 1) (bispecific antibody, human IgG1, kappa, L234A L235A, 28H1 VH and VL fused to the C-termini of the knob and hole heavy chains; also called CD40 × FAP 4 + 1; huCD40-28H1) heavy 1: not shown heavy 2: EVQLVESGGGLVQPGGSLRLSCAASGYSFTGYYIHWVRQAPGKGLEWVARVIPNAGGTSYNQKFKGRFTLSVDNSKNTAYLQMNSLRAEDTAVYYCAREGIYWWGQGTLVTVSSASTKGPSVFPLAPSSKSTSGGTAALGCLVKDYFPEPVTVSWNSGALTSGVHTFPAVLQSSGLYSLSSVVTVPSSSLGTQTYICNVNHKPSNTKVDKKVEPKSCDGGGGSGGGGSEVQLVESGGGLVQPGGSLRLSCAASGYSFTGYYIHWVRQAPGKGLEWVARVIPNAGGTSYNQKFKGRFTLSVDNSKNTAYLQMNSLRAEDTAVYYCAREGIYWWGQGTLVTVSSASTKGPSVFPLAPSSKSTSGGTAALGCLVKDYFPEPVTVSWNSGALTSGVHTFPAVLQSSGLYSLSSVVTVPSSSLGTQTYICNVNHKPSNTKVDKKVEPKSCDKTHTCPPCPAPEAAGGPSVFLFPPKPKDTLMISRTPEVTCVVVDVSHEDPEVKFNWYVDGVEVHNAKTKPREEQYNSTYRVVSVLTVLHQDWLNGKEYKCKVSNKALGAPIEKTISKAKGQPREPQVCTLPPSRDELTKNQVSLSCAVKGFYPSDIAVEWESNGQPENNYKTTPPVLDSDGSFFLVSKLTVDKSRWQQGNVFSCSVMHEALHNHYTQKSLSLSPGGGGGSGGGGSGGGGSGGGGSEIVLTQSPGTLSLSPGERATLSCRASQSVSRSYLAWYQQKPGQAPRLLIIGASTRATGIPDRFSGSGSGTDFTLTISRLEPEDFAVYYCQQGQVIPPTFGQGTKVEIK light: DIQMTQSPSSLSASVGDRVTITCRSSQSLVHSNGNTFLHWYQQKPGKAPKLLIYTVSNRFSGVPSRFSGSGSGTDFTLTISSLQPEDFATYFCSQTTHVPWTFGQGTKVEIKRTVAAPSVFIFPPSDEQLKSGTASVVCLLNNFYPREAKVQWKVDNALQSGNSQESVTEQDSKDSTYSLSSTLTLSKADYEKHKVYACEVTHQGLSSPVTKSFNRGEC	–	–	–	binds	47.1
